# Measured values reported in PMC2736636.
# Where two headings read alike, the source gives them in different places.
# How the values were obtained:
# Test in all cases: EMSA
# [1] = target: T1, O6-alkylguanine-DNA alkyltransferase (AGT, MGMT) (human, UniProt P16455 1-207)
# [2] = target: T1, O6-alkylguanine-DNA alkyltransferase …; remark: listed apart in the source
# [3] = target: T1, O6-alkylguanine-DNA alkyltransferase …; remark: listed apart in the source
# T1 sequence (P16455 whole entry): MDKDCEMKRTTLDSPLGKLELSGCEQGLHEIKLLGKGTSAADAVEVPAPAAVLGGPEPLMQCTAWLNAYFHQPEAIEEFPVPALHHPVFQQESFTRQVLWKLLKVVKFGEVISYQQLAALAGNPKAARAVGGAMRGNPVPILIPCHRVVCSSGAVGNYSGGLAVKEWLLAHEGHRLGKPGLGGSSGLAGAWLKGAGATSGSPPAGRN
binder,measurement,setting,value
duplex 16mer (A/B) (dsDNA) DNA 1: GACTGACTGACTGACT DNA 2: AGTCAGTCAGTCAGTC,Ka,[1],2.58e+06 M⁻¹
same,Ka,[2],3.97 ± 0.02 log10 M-1
same,Ka,[3],16900 M⁻¹
